Experimental data reported in US20210270842A1 (DYAX, published 2021).

T1: intact high molecular weight kininogen (HMWK) (Homo sapiens, UniProt P01042 19-644)
T1 construct: also called intact HMWK; 1-chain HMWK
T1 sequence: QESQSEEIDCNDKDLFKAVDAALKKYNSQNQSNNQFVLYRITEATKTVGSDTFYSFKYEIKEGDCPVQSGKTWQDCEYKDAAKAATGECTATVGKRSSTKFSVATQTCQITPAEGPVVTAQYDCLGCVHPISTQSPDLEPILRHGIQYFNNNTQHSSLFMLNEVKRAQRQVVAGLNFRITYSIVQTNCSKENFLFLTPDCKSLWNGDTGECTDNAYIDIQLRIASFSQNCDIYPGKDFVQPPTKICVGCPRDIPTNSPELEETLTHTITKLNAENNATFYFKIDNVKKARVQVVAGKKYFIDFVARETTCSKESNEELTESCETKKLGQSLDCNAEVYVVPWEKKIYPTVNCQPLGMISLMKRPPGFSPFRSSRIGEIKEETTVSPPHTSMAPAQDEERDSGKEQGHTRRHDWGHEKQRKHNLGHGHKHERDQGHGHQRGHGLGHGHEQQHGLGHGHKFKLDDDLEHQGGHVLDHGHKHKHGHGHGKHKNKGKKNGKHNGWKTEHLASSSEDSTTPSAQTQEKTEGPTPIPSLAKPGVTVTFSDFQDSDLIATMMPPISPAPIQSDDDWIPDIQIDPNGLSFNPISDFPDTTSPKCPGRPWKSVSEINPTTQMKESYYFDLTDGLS

B1: 559B-M0044-E09 (Fab, V domains shown)
VH: EVQLLESGGGLVQPGGSLRLSCAASGFTFSQYSMGWVRQAPGKGLEWVSSIYSSGGSTQYADSVKGRFTISRDNSKNTLYLQMNSLRAEDTATYYCARTRRGWFGEDYYYYMDVWGKGTTVTVSS
VL: DIQMTQSPSSLSASVGDRITITCRASQGIRNDVGWYQQKPGKAPQRLIYAASSLQSGVPSRFSGSGSGTEFTLTISSLQPEDFATYYCLQHNSYPLTFGGGTKVEIK
B2: 559B-M0036-G12 (Fab, V domains shown)
VH: EVQLLESGGGLVQPGGSLRLSCAASGFTFSRYYMAWVRQAPGKGLEWVSGIVPSGGQTGYADSVKGRFTISRDNSKNTLYLQMNSLRAEDTAVYYCARTRRGWFGEDYYYYMDVWGKGTLVTVSS
VL: DIQMTQSPGTLSLSPGERATVSCRASQSVGSTYLAWYQHKPGQAPRLLIYGASSRATGIPDRFSGSGSGTDFTLTISSLEPEDFAIYYCQHFHTSPPGITFGQGTRLEIK
B3: 559B-M0038-F04 (Fab, V domains shown)
VH: EVQLLESGGGLVQPGGSLRLSCAASGFTFSKYEMMWVRQAPGKGLEWVSSISPSGGYTMYADSVKGRFTISRDNSKNTLYLQMNSLRAEDTAVYYCARHRSKWNDAPFDSWGQGTLVTVSS
VL: DIQMTQSPSSLSASVGDRVAITCRASQSIDTYLNWYQQKPGKAPKLLIYAASKLEDGVPSRFSGSGTGTDFTLTIRSLQPEDFASYFCQQSYSSPGITFGPGTKVEIK
B4: 559B-M0047-H01 (Fab, V domains shown)
VH: EVQLLESGGGLVQPGGSLRLSCAASGFTFSFYMMYWVRQAPGKGLEWVSSISSSGGFTRYADSVKGRFTISRDNSKNTLYLQMNSLRAEDTAVYYCARVRGLAVAAPDYWGQGTLVTVSS
VL: QSELTQPASVSGSPGQSITISCIGTSSDIGTYNYVSWYQQHPGKAPKLMIYDVNTRPSGVSDRFSGSKSGNTASLTISGLQAEDEADYYCSSYTTSVTWVFGGGTTLTVL
B5: 559B-M0039-H06 (Fab, V domains shown)
VH: EVQLLESGGGLVQPGGSLRLSCAASGFTFSAYDMHWVRQAPGKGLEWVSSIWPSGGGTYYADSVKGRFTISRDNSKNTLYLQMNSLRAEDTAVYYCARGDYDYGDFTDAFDIWGQGTMVTVSS
VL: QSALTQPASVSGSPGQSITISCTGTSSDVGSYNLVSWYQQHPGKAPKLMIYEGSKRPSGVPDRFSGSKSGNTASLIISGLQAEDEADYYCCSYAGSYSYVFGTGTRVTVL
B6: 559B-M0048-D12 (Fab, V domains shown)
VH: EVQLLESGGGLVQPGGSLRLSCAASGFTFSRYQMTWVRQAPGKGLEWVSSIGSSGGFTNYADSVKGRFTISRDNSKNTLYLQMNSLRAEDTAVYYCARLPANFYYYMDVWGKGTTVTVSS
VL: DIQMTQSPSSLSASVGDRVTITCRASQNIYSFLNWYQQKPGKAPKLLIYATSSLQSGVPSRFSGSGSGTDFTLTISSLQPEDFASYYCQQNYNIPWTFGQGTKVEIK
B7: 559B-M0039-D08 (Fab, V domains shown)
VH: EVQLLESGGGLVQPGGSLRLSCAASGFTFSNYAMQWVRQAPGKGLEWVSWIYSSGGPTYYADSVKGRFTISRDNSKNTLYLQMNSLRAEDTAVYYCARGLPGQPFDYWGQGTLVTVSS
VL: QSELTQPPSASGTPGQRVTISCSGSSSNIGNNYVYWYQQFPGTAPKLLIYRNNQRPSGVPDRFSGSKSGTSASLAISGLRSEDEADYYCATWDDRLSGWVFGGGTKLTVL
B8: 559B-M0021-G11 (Fab, V domains shown)
VH: EVQLLESGGGLVQPGGSLRLSCAASGFTFSPYPMTWVRQAPGKGLEWVSGISSSGGFTPYADSVKGRFTISRDNSKNTLYLQMNSLRAEDTAVYYCARMVRGVIKAFDIWGQGTMVTVSS
VL: QYELTQPPSASGTPGQRVTISCSGSSSNIGSHYVFWYQQLPGAAPKLLIYRNNQRPSGVPDRFSGSKSGTSASLAISGLRSEDEADYYCATWDNSLSAWVFGGGTKLTVL
B9: 559B-M0038-H03 (Fab, V domains shown)
VH: EVQLLESGGGLVQPGGSLRLSCAASGFTFSKYDMHWVRQAPGKGLEWVSRISSSGGKTEYADSVKGRFTISRDNSKNTLYLQMNSLRAEDTAVYYCAREYRYCTANTCSLYGMDVWGRGTTVTVSS
VL: DIQMTQSPSSLSASVGDRVAITCRTSQGVRSDFAWYQQTPGKAPRRLIYAAFILDNGVPSRFSGSGSGTEFTLTISSLQPEDFATYYCQQSYSTPLTFGGGTKVEMK
B10: 559B-M0042-E06 (Fab, V domains shown)
VH: EVQLLESGGGLVQPGGSLRLSCAASGFTFSMYKMSWVRQAPGKGLEWVSVISPSGGRTYYADSVKGRFTISRDNSKNTLYLQMNSLRAEDTAVYYCARGTRTSGLDYWGQGTLVTVSS
VL: QSALTQPASVSGSPGQSITISCTGTSSDVGGYKYVSWYQQHPGKAPKLVIYEVSNRPSGVSNRFSGSKSGNTASLTISGLQAEDEADYYCSSYTSSTTVVFGGGTKLTVL
B11: 559B-M0003-C08 (Fab, V domains shown)
VH: EVQLLESGGGLVQPGGSLRLSCAASGFTFSPYMMYWVRQAPGKGLEWVSSISPSGGKTWYADSVKGRFTISRDNSKNTLYLQMNSLRAEDTAVYYCARLGGSSSYYYYYYYGMDVWGQGTTVTVSS
VL: QSALTQSPSASGTPGQRVTISCSGSSSNIGGNTVNWYQQFPGTAPKLLIYSNNQRPSGVPDRFSGSKSGTSASLAISGLQSEDEAIYYCASWDDRLNGHWVFGGGTRLTVL
B12: 559B-X0004-B05 (Fab, V domains shown)
VH: EVQLLESGGGLVQPGGSLRLSCAASGFTFHYRMMWVRQAPGKGLEWVSYISSSGGYTAYADSVKGRFTISRDNSKNTLYLQMNSLRAEDTAVYYCAAKRNRAFDIWGQGTMVTVSS
VL: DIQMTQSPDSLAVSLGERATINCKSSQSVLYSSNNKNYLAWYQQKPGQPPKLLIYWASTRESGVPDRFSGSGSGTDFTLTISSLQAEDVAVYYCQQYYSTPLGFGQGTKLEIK
B13: 559B-M0019-E12 (Fab, V domains shown)
VH: EVQLLESGGGLVQPGGSLRLSCAASGFTFSGYNMYWVRQAPGKGLEWVSRISPSGGWTSYADSVKGRFTISRDNSKNTLYLQMNSLRAEDTAVYYCTRGQWMDWWGQGTMVTVSS
VL: DIQMTQSPSSLSASVGDRVIITCRASQNITGYLNWYQQKPGKAPNLLIYDASRMNTGVPSRFRGSGSGTDYILTIYKLEPEDIGTYFCQHTDDFSVTFGGGTKVDLK
B14: 559B-M0061-G06 (Fab, V domains shown)
VH: EVQLLESGGGLVQPGGSLRLSCAASGFTFSKYTMWWVRQAPGKGLEWVSVISSSGGKTYYADSVKGRFTISRDNSKNTLYLQMNSLRAEDTAVYYCARTANRAFDIWGQGTMVTVSS
VL: DIQMTQSPAALSVSPGERATLSCRASQSVSSDLAWYQQKPGQAPRLLIHGASTRATGIPARFSGSGSGREFTLTISSLQSEDFAVYYCQQYNDWPPLFGPGTKVNIK
B15: 559B-M0068-C07 (Fab, V domains shown)
VH: EVQLLESGGGLVQPGGSLRLSCAASGFTFSSYQMHWVRQAPGKGLEWVSGIYSSGGSTPYADSVKGRFTISRDNSKNTLYLQMNSLRAEDTAVYYCARGHHGMDVWGQGTTVTVSS
VL: DIQMTQSPSSVSASVGDRVTITCRASQGISSWLAWYQQKPGKAPKLLIYAASNLQSGVPSRFSGSGSGTDFTLTISSLQPEDFATYYCQKYNIAPYTFGQGTKLEIK
B16: 559B-M0067-E02 (Fab, V domains shown)
VH: EVQLLESGGGLVQPGGSLRLSCAASGFTFSLYPMVWVRQAPGKGLEWVSSIYPSGGFTTYADSVKGRFTISRDNSKNTLYLQMNSLRAEDTAVYYCARSSRYYYYGMDVWGQGTTVTVSS
VL: QYELTQPPSMSGTPGQRVTISCSGSSSNIGSEYVYWFQQLPGTAPKLLIYRNDQRPSGVPDRFSGSKSGTSASLAISGLRSEDETDYYCSTWDDTLRTGVFGGGTKVTVL
B17: 559B-M0044-C05 (Fab, V domains shown)
VH: EVQLLESGGGLVQPGGSLRLSCAASGFTFSIYQMYWVRQAPGKGLEWVSSIYSSGGRTFYADSVKGRFTISRDNSKNTLYLQMNSLRAEDTAVYYCATRGSWYVGGNEYFQHWGQGTLVTVSS
VL: QSVLTQSPSLSLSPGQTASIPCSGDTLGNKFVSWYQQKPGQSPVLVIYQDTKRPSGIPERFSGSNSGNTATLTITGTQAMDEADYYCQVWDSNSYAFGPGTKVTVL
B18: 559B-M0017-H08 (Fab, V domains shown)
VH: EVQLLESGGGLVQPGGSLRLSCAASGFTFSPYWMHWVRQAPGKGLEWVSVISPSGGGTGYADSVKGRFTISRDNSKNTLYLQMNSLRAEDTAVYYCARESRGSGSHEDYWGQGTLVTVSS
VL: DIQMTQSPATLSLSPGERATLSCRASQSVSSYLAWYQQKPGQAPRLLIYGASNRGTGIPARFSGSGSGTEFTLTISSLQSEDFAVYFCQQYKNWPNLTFGGGTKVDIK

These binders were tested against T1, intact high molecular weight kininogen … (assay: ELISA: Fab coated on 96-well plate, LowCross block, biotinylated antigen, streptavidin-HRP; signal over uncoated well).
Experimental: Thirty-six purified Fab clones (see Table 2 below) were assessed for binding to cleaved HWMK, intact HMWK, and LWMK using the immunoassay described in Example 1. Specifically, each of the purified Fab clones was immobilized on 96-well assay plates at a concentration of […]) in a total volume of 100 μL in PBS and incubated overnight at 2-8° C. The assay plates were blocked using LowCross blocking buffer. Biotinylated intact HMWK, biotinylated cleaved HMWK or biotinylated LMWK ([…]) was added to each well in a total volume of 100 μL and incubated for 2 hours prior to washing with a wash buffer. HRP-labeled streptavidin was added to each well at a concentration of 100 ng/mL, and the signal was developed using Ultra TMB Substrate. The signal to noise ratio was calculated using the signal observed upon the addition of the biotinylated protein to an uncoated well. (FIG. 2, panels A and B). Based on the ELISA results, the antibodies can be divided among 5 categories (Table 2).

Binding result, binds:
B1
B2
B3
B4
B5
B6
B7
B8
B9
B10
B11
B12
B13
B14
B15
B16
B17
B18
